Consider 22 molecules from US7005505 (Genentech, dated 2006).

The target in assay [1] is T1, FLT-1 IgG (UniProt P17948 27-758).
T1 construct: Construct only cited from Park et al. 1994; also called FLT-IgG; FLT-1 receptor-IgG chimera; not shown: IgG part of the chimera (captured by anti-human IgG Fc)
The assay is described as follows: competition with 125I-VEGF165 for FLT-1-IgG, radioligand plate assay. How it is done: (§1) After the supernatant was discarded, the wells were washed three times in washing buffer (0.01% Tween 80 in PBS). The plate was blocked (300 µl/well) for one hr in assay buffer (0.5% BSA, 0.03% Tween 80, 0.01% Thimerosal in PBS). The supernatant was discarded and the wells were washed. […] Aliquots of this solution (100 µl) were added to pre-coated microtiter plates and incubated for 4 hr at ambient temperature with gentle agitation. The supernatant was discarded, the plate washed, and individual microtiter wells were counted by gamma scintigraphy (LKB model 1277).

For assay [2], the target named is T1, FLT-1 IgG. The assay is described as follows: competition with 125I-VEGF165 for FLT-1-IgG, radioligand plate assay, no heparin. How it is done: as §1
Assay [3] deals with T1, FLT-1 IgG. The assay is described as follows: competition with 125I-VEGF165 for FLT-1-IgG, radioligand plate assay. On the procedure:
as §1
The source holds these as a separate data set.

T1 sequence (P17948 27-758): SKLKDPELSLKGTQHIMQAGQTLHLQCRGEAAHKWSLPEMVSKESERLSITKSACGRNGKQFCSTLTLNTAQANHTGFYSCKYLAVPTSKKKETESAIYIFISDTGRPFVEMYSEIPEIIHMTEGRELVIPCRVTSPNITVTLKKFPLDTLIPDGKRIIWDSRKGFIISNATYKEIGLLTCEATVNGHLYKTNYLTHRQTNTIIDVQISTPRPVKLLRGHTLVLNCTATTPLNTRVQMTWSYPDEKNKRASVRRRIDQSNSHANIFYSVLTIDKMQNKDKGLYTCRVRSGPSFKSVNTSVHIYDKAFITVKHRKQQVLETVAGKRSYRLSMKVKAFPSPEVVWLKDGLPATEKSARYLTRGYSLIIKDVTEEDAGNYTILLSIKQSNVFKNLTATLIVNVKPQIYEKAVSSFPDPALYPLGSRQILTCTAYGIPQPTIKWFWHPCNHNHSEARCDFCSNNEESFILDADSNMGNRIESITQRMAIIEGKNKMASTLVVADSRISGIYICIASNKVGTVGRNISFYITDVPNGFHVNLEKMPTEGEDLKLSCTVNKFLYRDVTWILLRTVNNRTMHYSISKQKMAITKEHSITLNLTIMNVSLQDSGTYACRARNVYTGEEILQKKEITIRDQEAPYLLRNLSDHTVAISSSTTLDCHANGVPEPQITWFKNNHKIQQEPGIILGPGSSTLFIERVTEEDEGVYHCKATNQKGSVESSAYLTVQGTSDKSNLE

B1: D34A VEGF (ligand)
chain: APMAEGGGQNHHEVVKFMDVYQRSYCHPIETLVAIFQEYPDEIEYIFKPSCVPLMRCGGCCNDEGLECVPTEESNITMQIMRIKPHQGQHIGEMSFLQHNKCECRPKKDRARQENPCGPCSERRKHLFVQDPQTCKCSCKNTDSRCKARQLELNERTCRCDKPRR
notes: VEGF165 mutant from 293 cells, conditioned medium
As for B1, the IC50 in the assay with FLT-1 IgG [1] was found to be 0.59 ng/mL; in the assay with FLT-1 IgG [2], 0.011 nM.

B2: purified CHO-derived VEGF165 (ligand)
chain: APMAEGGGQNHHEVVKFMDVYQRSYCHPIETLVDIFQEYPDEIEYIFKPSCVPLMRCGGCCNDEGLECVPTEESNITMQIMRIKPHQGQHIGEMSFLQHNKCECRPKKDRARQENPCGPCSERRKHLFVQDPQTCKCSCKNTDSRCKARQLELNERTCRCDKPRR
notes: Homodimer; also called VEGF (CHO cell); wildtype VEGF165 derived from CHO cells
On to B2, for which the IC50 in the assay with FLT-1 IgG [3] turned out to be 0.95 ng/mL; with FLT-1 IgG [1], 0.95 ng/mL; in the assay with FLT-1 IgG [2], 0.019 nM.

B3: R82A VEGF (ligand)
chain: APMAEGGGQNHHEVVKFMDVYQRSYCHPIETLVDIFQEYPDEIEYIFKPSCVPLMRCGGCCNDEGLECVPTEESNITMQIMAIKPHQGQHIGEMSFLQHNKCECRPKKDRARQENPCGPCSERRKHLFVQDPQTCKCSCKNTDSRCKARQLELNERTCRCDKPRR
notes: as for B1
Consider B3, for which the IC50 in the assay with FLT-1 IgG [3] was determined as 1.23 ng/mL; with FLT-1 IgG [2], 0.02 nM.

B4: H90A, E93A VEGF (ligand)
chain: APMAEGGGQNHHEVVKFMDVYQRSYCHPIETLVDIFQEYPDEIEYIFKPSCVPLMRCGGCCNDEGLECVPTEESNITMQIMRIKPHQGQAIGAMSFLQHNKCECRPKKDRARQENPCGPCSERRKHLFVQDPQTCKCSCKNTDSRCKARQLELNERTCRCDKPRR
notes: VEGF165 mutant from 293 cells, conditioned medium; also called H9OA, E93A
B4: the IC50 with FLT-1 IgG [1] was 0.077 ng/mL; in the assay with FLT-1 IgG [2], 0.026 nM.

B5: K84A VEGF (ligand)
chain: APMAEGGGQNHHEVVKFMDVYQRSYCHPIETLVDIFQEYPDEIEYIFKPSCVPLMRCGGCCNDEGLECVPTEESNITMQIMRIAPHQGQHIGEMSFLQHNKCECRPKKDRARQENPCGPCSERRKHLFVQDPQTCKCSCKNTDSRCKARQLELNERTCRCDKPRR
notes: as for B1
For the molecule B5, the IC50 stood at 1.91 ng/mL with FLT-1 IgG [3] and 0.024 nM in the assay with FLT-1 IgG [2].

B6: E103A VEGF (ligand)
chain: APMAEGGGQNHHEVVKFMDVYQRSYCHPIETLVDIFQEYPDEIEYIFKPSCVPLMRCGGCCNDEGLECVPTEESNITMQIMRIKPHQGQHIGEMSFLQHNKCACRPKKDRARQENPCGPCSERRKHLFVQDPQTCKCSCKNTDSRCKARQLELNERTCRCDKPRR
notes: as for B1
Take B6: the IC50 was 0.74 ng/mL in the assay with FLT-1 IgG [1] and 0.017 nM in the assay with FLT-1 IgG [2].

B7: E67A VEGF (ligand)
chain: APMAEGGGQNHHEVVKFMDVYQRSYCHPIETLVDIFQEYPDEIEYIFKPSCVPLMRCGGCCNDEGLACVPTEESNITMQIMRIKPHQGQHIGEMSFLQHNKCECRPKKDRARQENPCGPCSERRKHLFVQDPQTCKCSCKNTDSRCKARQLELNERTCRCDKPRR
notes: as for B1
For B7, the IC50 with FLT-1 IgG [3] stood at 0.47 ng/mL; with FLT-1 IgG [2], 0.008 nM.

B8: H11A, H12A, E13A VEGF (ligand)
chain: APMAEGGGQNAAAVVKFMDVYQRSYCHPIETLVDIFQEYPDEIEYIFKPSCVPLMRCGGCCNDEGLECVPTEESNITMQIMRIKPHQGQHIGEMSFLQHNKCECRPKKDRARQENPCGPCSERRKHLFVQDPQTCKCSCKNTDSRCKARQLELNERTCRCDKPRR
notes: as for B1
With B8, the concentration for half-maximal inhibition (IC50) is 0.62 ng/mL with FLT-1 IgG [1] and 0.02 nM in the assay with FLT-1 IgG [2].

B9: E5A VEGF (ligand)
chain: APMAAGGGQNHHEVVKFMDVYQRSYCHPIETLVDIFQEYPDEIEYIFKPSCVPLMRCGGCCNDEGLECVPTEESNITMQIMRIKPHQGQHIGEMSFLQHNKCECRPKKDRARQENPCGPCSERRKHLFVQDPQTCKCSCKNTDSRCKARQLELNERTCRCDKPRR
notes: as for B1
For the molecule B9, in the assay with FLT-1 IgG [2], the IC50 was determined as 0.022 nM.

B10: K107A, K108A VEGF (ligand)
chain: APMAEGGGQNHHEVVKFMDVYQRSYCHPIETLVDIFQEYPDEIEYIFKPSCVPLMRCGGCCNDEGLECVPTEESNITMQIMRIKPHQGQHIGEMSFLQHNKCECRPAADRARQENPCGPCSERRKHLFVQDPQTCKCSCKNTDSRCKARQLELNERTCRCDKPRR
notes: as for B1
Turning to B10, the IC50 with FLT-1 IgG [1] was 2.94 ng/mL; with FLT-1 IgG [2], 0.066 nM.

B11: KKDR(107-110)AAAA VEGF (ligand)
chain: APMAEGGGQNHHEVVKFMDVYQRSYCHPIETLVDIFQEYPDEIEYIFKPSCVPLMRCGGCCNDEGLECVPTEESNITMQIMRIKPHQGQHIGEMSFLQHNKCECRPAAAAARQENPCGPCSERRKHLFVQDPQTCKCSCKNTDSRCKARQLELNERTCRCDKPRR
notes: VEGF165 mutant from 293 cells, conditioned medium; also called K107A, K108A, D109A, R110A
B11: the IC50 in the assay with FLT-1 IgG [1] turned out to be 2.42 ng/mL; with FLT-1 IgG [2] it was 0.054 nM.

B12: H99A, K101A VEGF (ligand)
chain: APMAEGGGQNHHEVVKFMDVYQRSYCHPIETLVDIFQEYPDEIEYIFKPSCVPLMRCGGCCNDEGLECVPTEESNITMQIMRIKPHQGQHIGEMSFLQANACECRPKKDRARQENPCGPCSERRKHLFVQDPQTCKCSCKNTDSRCKARQLELNERTCRCDKPRR
notes: as for B1
Regarding B12, the IC50 amounted to 1.33 ng/mL with FLT-1 IgG [1] and 0.03 nM with FLT-1 IgG [2].

B13: E30A VEGF (ligand)
chain: APMAEGGGQNHHEVVKFMDVYQRSYCHPIATLVDIFQEYPDEIEYIFKPSCVPLMRCGGCCNDEGLECVPTEESNITMQIMRIKPHQGQHIGEMSFLQHNKCECRPKKDRARQENPCGPCSERRKHLFVQDPQTCKCSCKNTDSRCKARQLELNERTCRCDKPRR
notes: as for B1
For the molecule B13, in the assay with FLT-1 IgG [2], the IC50 is 0.028 nM.

B14: N75A VEGF (ligand)
chain: APMAEGGGQNHHEVVKFMDVYQRSYCHPIETLVDIFQEYPDEIEYIFKPSCVPLMRCGGCCNDEGLECVPTEESAITMQIMRIKPHQGQHIGEMSFLQHNKCECRPKKDRARQENPCGPCSERRKHLFVQDPQTCKCSCKNTDSRCKARQLELNERTCRCDKPRR
notes: Unglycosylated form of VEGF from 293 cells, conditioned medium
Consider B14, for which the half-inhibitory concentration (IC50) stood at 1.26 ng/mL with FLT-1 IgG [1] and 0.022 nM with FLT-1 IgG [2].

B15: D41A VEGF (ligand)
chain: APMAEGGGQNHHEVVKFMDVYQRSYCHPIETLVDIFQEYPAEIEYIFKPSCVPLMRCGGCCNDEGLECVPTEESNITMQIMRIKPHQGQHIGEMSFLQHNKCECRPKKDRARQENPCGPCSERRKHLFVQDPQTCKCSCKNTDSRCKARQLELNERTCRCDKPRR
notes: as for B1
B15 yielded an IC50 with FLT-1 IgG [2] of 0.022 nM.

B16: R82A, K84A, H86A VEGF (ligand)
chain: APMAEGGGQNHHEVVKFMDVYQRSYCHPIETLVDIFQEYPDEIEYIFKPSCVPLMRCGGCCNDEGLECVPTEESNITMQIMAIAPAQGQHIGEMSFLQHNKCECRPKKDRARQENPCGPCSERRKHLFVQDPQTCKCSCKNTDSRCKARQLELNERTCRCDKPRR
notes: VEGF165 mutant from 293 cells, conditioned medium; also called R82A, K84A, H86 VEGF
Turning to B16, the IC50 with FLT-1 IgG [3] stood at 1.7 ng/mL; in the assay with FLT-1 IgG [2], 0.048 nM.

B17: D63A, E64A, E67A VEGF (ligand)
chain: APMAEGGGQNHHEVVKFMDVYQRSYCHPIETLVDIFQEYPDEIEYIFKPSCVPLMRCGGCCNAAGLACVPTEESNITMQIMRIKPHQGQHIGEMSFLQHNKCECRPKKDRARQENPCGPCSERRKHLFVQDPQTCKCSCKNTDSRCKARQLELNERTCRCDKPRR
notes: as for B1
For the molecule B17, the IC50 was found to be 44.6 ng/mL with FLT-1 IgG [3] and 0.78 nM with FLT-1 IgG [2].

B18: R105A VEGF (ligand)
chain: APMAEGGGQNHHEVVKFMDVYQRSYCHPIETLVDIFQEYPDEIEYIFKPSCVPLMRCGGCCNDEGLECVPTEESNITMQIMRIKPHQGQHIGEMSFLQHNKCECAPKKDRARQENPCGPCSERRKHLFVQDPQTCKCSCKNTDSRCKARQLELNERTCRCDKPRR
notes: as for B1
For the molecule B18, the IC50 with FLT-1 IgG [1] is 1.57 ng/mL; in the assay with FLT-1 IgG [2], 0.038 nM.

B19: E72A, E73A VEGF (ligand)
chain: APMAEGGGQNHHEVVKFMDVYQRSYCHPIETLVDIFQEYPDEIEYIFKPSCVPLMRCGGCCNDEGLECVPTAASNITMQIMRIKPHQGQHIGEMSFLQHNKCECRPKKDRARQENPCGPCSERRKHLFVQDPQTCKCSCKNTDSRCKARQLELNERTCRCDKPRR
notes: as for B1
With B19, the results for the IC50 with FLT-1 IgG [1] and with FLT-1 IgG [2] were 0.91 ng/mL and 0.03 nM, respectively.

B20: E38A VEGF (ligand)
chain: APMAEGGGQNHHEVVKFMDVYQRSYCHPIETLVDIFQAYPDEIEYIFKPSCVPLMRCGGCCNDEGLECVPTEESNITMQIMRIKPHQGQHIGEMSFLQHNKCECRPKKDRARQENPCGPCSERRKHLFVQDPQTCKCSCKNTDSRCKARQLELNERTCRCDKPRR
notes: as for B1
On to B20, for which the IC50 was 0.87 ng/mL in the assay with FLT-1 IgG [1] and 0.015 nM with FLT-1 IgG [2].

B21: E42N, E44S VEGF (ligand)
chain: APMAEGGGQNHHEVVKFMDVYQRSYCHPIETLVDIFQEYPDNISYIFKPSCVPLMRCGGCCNDEGLECVPTEESNITMQIMRIKPHQGQHIGEMSFLQHNKCECRPKKDRARQENPCGPCSERRKHLFVQDPQTCKCSCKNTDSRCKARQLELNERTCRCDKPRR
modifications: N-linked carbohydrate at position 42 (apparently glycosylated)
notes: Neo-glycosylation control mutant from 293 cells, conditioned medium
On to B21, for which the IC50 with FLT-1 IgG [1] turned out to be 0.77 ng/mL; in the assay with FLT-1 IgG [2] it was 0.013 nM.

B22: E64S VEGF (ligand)
chain: APMAEGGGQNHHEVVKFMDVYQRSYCHPIETLVDIFQEYPDEIEYIFKPSCVPLMRCGGCCNDSGLECVPTEESNITMQIMRIKPHQGQHIGEMSFLQHNKCECRPKKDRARQENPCGPCSERRKHLFVQDPQTCKCSCKNTDSRCKARQLELNERTCRCDKPRR
notes: preparation not described further
In the assay with FLT-1 IgG [3], B22 came in with an IC50 of 1.9 ng/mL.

Usually IC50 stands for the concentration at which inhibition is half-maximal.
